Reference: US20250296958A1, “GL[…] E[…]” (THE ADMINISTRATORS OF THE TULANE EDUCATIONAL FUND, priority 2022, published 2025)
Bridges are numbered along the chain shown (N, C = ends). Where no end group is shown, it is not given here. [ ]: non-standard residue; d: D form. Glc = glycosylated with D-glucose; Lact = not defined here

B1: Analog A8: Tyr-c[D-Lys-Trp-Phe-Glu]-Ser-NH2 (peptide)
peptide: Y[dK]WFES-NH2
modifications: lactam 2-5
B2: Analog A5 (D-Nal at position 3, C-terminus Ser(Lact)CONH2) (peptide)
peptide: YK[dNal]FES(Lact)-NH2
modifications: not fully specified; reading uncertain
B3: Analog A4 (D-Nal at position 3, C-terminus Ser(Glc)CONH2) (peptide)
peptide: YK[dNal]FES(Glc)-NH2
modifications: not fully specified

Key:
[1] = molecular target: kappa opioid receptor, P41145; assay: PDSP receptor binding; log of Ki in M
[2] = molecular target: mu opioid receptor (UniProt P35372); assay: PDSP receptor binding; against the glycosylated Trp analogs
[3] = molecular target: mu opioid receptor (UniProt P35372); assay: PDSP receptor binding
[4] = molecular target: kappa opioid receptor (UniProt P41145); assay: PDSP receptor binding, selectivity against MOR; from the 10,000 nM ceiling
[5] = molecular target: delta opioid receptor (UniProt P41143); assay: as above
[6] = molecular target: mu opioid receptor (UniProt P35372); assay: PDSP receptor binding; log of Ki in M
[7] = molecular target: kappa opioid receptor (UniProt P41145); assay: PDSP receptor binding; binding eliminated by the text
[8] = molecular target: delta opioid receptor (UniProt P41143); assay: as above

Binder | Log Ki [1] | further fold reduction of MOR binding by D-Nal at position 3 [2] [fold] | Ki [3] [µM] | kap/mu (ratio of Ki at KOR to Ki at MOR) [4] | del/mu (ratio of Ki at DOR to Ki at MOR) [5] | Log Ki [6] | Ki [7] [µM] | Ki [8] [µM]
B1 | -5.98 |  |  |  |  |  |  | 
B2 |  | 11 | 0.0553 | > 181 | > 181 | -7.26 | > 10 | > 10
B3 |  | 11 | 0.0635 | > 157 | > 157 | -7.2 | > 10 | > 10
